Assays:
Conditions in all cases: remark: other sources report otherwise
[1] = target: 56F8; assay: ELISA, coated CR6261, P. pastoris medium
[2] = target: 36H2; assay: ELISA, coated CR6261, P. pastoris medium
[3] = target: 11F4; assay: ELISA, coated CR6261, P. pastoris medium
[4] = target: 84E10; assay: ELISA, coated CR6261, P. pastoris medium
[5] = target: 89F11; assay: ELISA, coated CR6261, P. pastoris medium
[6] = target: 75H8; assay: ELISA, coated CR6261, P. pastoris medium
[7] = target: 57B8; assay: ELISA, coated CR6261, P. pastoris medium
[8] = target: 2D9; assay: ELISA, coated CR6261, P. pastoris medium
[9] = target: 48B11; assay: ELISA, coated CR6261, P. pastoris medium
[10] = target: 70F6; assay: ELISA, coated CR6261, P. pastoris medium
[11] = target: 86B4; assay: ELISA, coated CR6261, P. pastoris medium
[12] = target: 51G3; assay: ELISA, coated CR6261, P. pastoris medium
[13] = target: 86G3; assay: ELISA, coated CR6261, P. pastoris medium
[14] = target: 1F2; assay: ELISA, coated CR6261, P. pastoris medium
[15] = target: T1, H1-mini2-cluster1+5+6-GCN4 without leader sequence and with FLAG-thrombin-foldon-HIS; assay: ELISA signal over HTRF expression signal, P. pastoris; the reference itself
[16] = target: T1, H1-mini2-cluster1+5+6-GCN4 without …; assay: ELISA signal over HTRF expression signal, HEK293F; the reference itself
[17] = target: T1, H1-mini2-cluster1+5+6-GCN4 without …; assay: ELISA signal over HTRF expression signal, P. pastoris; average of the parental
[18] = target: T1, H1-mini2-cluster1+5+6-GCN4 without …; assay: ELISA signal over HTRF expression signal, HEK293F; average of the parental

B1: CR6261 (antibody, V domains shown)
VH: EVQLVESGAEVKKPGSSVKVSCKASGGPFRSYAISWVRQAPGQGPEWMGGIIPIFGTTKYAPKFQGRVTITADDFAGTVYMELSSLRSEDTAMYYCAKHMGYQVRETMDVWGKGTTVTVSS
VL: QSVLTQPPSVSAAPGQKVTISCSGSSSNIGNDYVSWYQQLPGTAPKLLIYDNNKRPSGIPDRFSGSKSGTSATLGITGLQTGDEANYYCATWDRRPTAYVVFGGGTKLTVLG
B1 gave a CR6261 binding signal [1] of 235000, a CR6261 binding signal [2] of 171000 and a CR6261 binding signal [3] of 151000. It also gave a CR6261 binding signal [4] of 255000, a CR6261 binding signal [5] of 84800 and a CR6261 binding signal [6] of 103000. The CR6261 binding signal [7] was 58400, the CR6261 binding signal [8] was 316000 and the CR6261 binding signal [9] was 303000. It also gave a CR6261 binding signal [10] of 419000, a CR6261 binding signal [11] of 1.08e+06 and a CR6261 binding signal [12] of 460000. The CR6261 binding signal [13] was 184000, the CR6261 binding signal [14] was 149000 and the fold increase of ratio over parental SEQ ID NO: 6 [15] was 1. It also gave a fold increase of ratio over parental SEQ ID NO: 6 [16] of 1, a ratio (binding signal/HTRF signal) [17] of 5.94 and a ratio (binding signal/HTRF signal) [18] of 17.4.
